In assay [1] the target is T1, CLL-1 on the surface of CLL-1-positive AML cell lines (HL-60 WT, U937) (human, UniProt Q5QGZ9 1-265).
T1 construct: whole, on cells; also called HL-60 WT cells; U937 cells
T1 sequence (looked up): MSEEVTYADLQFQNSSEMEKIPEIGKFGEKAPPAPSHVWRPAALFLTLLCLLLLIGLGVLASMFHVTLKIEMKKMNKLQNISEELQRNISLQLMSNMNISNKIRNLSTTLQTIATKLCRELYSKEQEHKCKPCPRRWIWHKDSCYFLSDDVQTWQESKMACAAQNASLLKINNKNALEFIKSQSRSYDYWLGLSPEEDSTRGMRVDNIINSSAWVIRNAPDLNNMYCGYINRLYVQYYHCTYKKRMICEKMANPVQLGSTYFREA
The experiment in a line: multi-point flow cytometry on HL-60 WT cells, FLAG-tagged binder, anti-FLAG AlexaFluor 488. The protocol: Target cell staining was assessed relative to control samples comprising cells stained with secondary antibodies only (see FIG. 6). Multi-point FACS via flow cytometry was performed to assess dose-depending binding of CLL-1 antibody binders to the cell surface of HL-60 WT cells. Un-fixed, un-permeabilized cells were incubated with various concentrations of purified FLAG-tagged anti-CLL-1 antibody clones and cell-surface binding was detected by subsequent incubation in the presence of rabbit anti-FLAG tag antibody AlexaFluor 488-conjugate antibody (R&D Systems).

Assay [2] deals with T1, CLL-1 on the surface of CLL-1-positive …. The experiment in a line: flow cytometry, HL-60 WT, 200 nM; secondary only 5600. The protocol:
(§1) HL60 WT, U937, or HL-60 CLL-1 knockout (KO) control cells were counted, washed in PBS and mixed with 1 ml of Fixable Viability dye eFluor 780 (diluted at 1:1000 in PBS) then incubated at room temperature for 10 minutes to distinguish Live/Dead cells. Subsequently the cells were washed once with FACS Buffer (PBS with 2% FBS) and incubated with human TruStain FcX™ (Fc block diluted at 1:10 in FACS buffer) at room temperature for 5 minutes. Fc blocked cells were stained with 50 μL of the primary CLL-1 antibody (at 200 nM concentrations) and incubated at 4° C. for 30 minutes in the dark. Cells were subsequently stained with 100 μL of secondary antibody (AF488 Rabbit anti-FLAG-tag diluted at 1:1000) incubated at 4° C. for 30 minutes in the dark. Cells were washed and flow cytometric analysis was performed using flow cytometry and data analysis was performed using FlowJo.

In assay [3] the target is T2, biotinylated recombinant CLL-1 protein (UniProt Q5QGZ9 65-265, limits assumed, biotinylated (site not stated)).
T2 construct: also called CLEC12A
T2 sequence (looked up): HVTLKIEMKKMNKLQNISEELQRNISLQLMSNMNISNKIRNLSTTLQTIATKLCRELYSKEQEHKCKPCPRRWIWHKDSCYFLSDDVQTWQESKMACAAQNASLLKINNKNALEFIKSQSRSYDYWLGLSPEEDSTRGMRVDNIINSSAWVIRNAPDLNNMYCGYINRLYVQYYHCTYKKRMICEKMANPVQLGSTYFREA
In words: ELISA; biotinylated CLL-1 on neutravidin plate, FLAG-tagged binder, anti-FLAG HRP. The protocol:
Dose-depending binding activities were analyzed by ELISA. COSTAR® microtiter plates were coated with 1 μg/mL neutravidin protein. Following washing, neutravidin-coated wells were seeded with 100 nM of biotinylated recombinant CLL-1 protein. Following washing, purified FLAG-tagged CLL-1 antibody binders were added to the wells and subsequently detected by mouse anti-FLAG tag HRP conjugate (Sigma).

Assay [4] concerns the target T1, CLL-1 on the surface of CLL-1-positive …. In words: flow cytometry, U937, 200 nM; last table names out of step. The protocol:
as §1

As usually defined, the EC50 is the midpoint of the concentration-response curve.

B1: Anti-CLL-1 Binder Clone 40 (scFv)
scFv: QSVLTQPPSVSAAPGQKVTISCSGSSSNIGNNYVSWYQQLPGTAPKLLIYDNNKRPSGIPDRFSGSESGTSATLGITGLQTGDEADYYCGTWDSSLSAWVFGGGTQLIILGGGGSGGGGSGGGGSQVQLQQSGPGLVKPSQTLSLTCAISGDSVSSNSAAWNWIRQSPSRGLEWLGRTHYRSKWYNDYAVSVKSRITISADTSKNQFSLQLNSVTPEDTAVYYCARDRYTVRPDAFDIWGQGTTVTVSS
notes: scFv (VL-linker-VH); not shown: FLAG tag
For B1, the EC50 in assay [1] worked out at 11.4 nM; in assay [3], 0.5 nM. The “Geometric Mean : B530-H” value in assay [2] was 23100.

B2: Anti-CLL-1 Binder Clone 20 (VHH)
VHH: QVQLVQSGGGLVQPGGSLRLSCAASDFSFSYYEMSWVRQAPGKGLEWVSTISGSGDSTYYADSVKGRFTISRDNTKNTLYLQMNTLRAEDTATYYCMTDGETWGTHRYTVYWGQGALVTVSS
notes: also called 20 VH; VH clone 20; not shown: FLAG tag
B2: the “Geometric Mean : B530-H” value in assay [4] amounted to 27000; in assay [2], 9110. Further, the EC50 in assay [3] was 4.7 nM.

B3: Anti-CLL-1 Binder Clone 42 (scFv)
scFv: EIVLTQSPATLSLSPGERATLSCRASQSVSSYLAWYQQKPGQAPRLLIYDASNRATGIPDRFSGSGSGTDFTLTISRLEPEDFAVYYCQQYGSSPVTFGQGTKLEIKGGGGSGGGGSGGGGSQVQLVQSGAEVKKPGSSVKVSCKASGGTFSSYAISWVRQAPGQGLEWMGGIIPIFGTANYAQKFQGRVIMTTDTSTSTAHMELRSLRSDDTAVYYCARDADEFGAFDIWGQGTTVTVSS
notes: as for B1
With B3, the figures for the EC50 in assay [1] and in assay [3] were 2.2 nM and 1.5 nM, respectively. For the same molecule, the figures for the “Geometric Mean : B530-H” value in assay [4] and in assay [2] were 29000 and 10400, respectively.

B4: Anti-CLL-1 Binder Clone 11 (scFv)
scFv: QSVLTQPASVSGSPGQSITISCTGTSSDVGASNSVSWYQRHPGKPPKLMIYDVSNRPSGISNRFSGSKSGNTASLTISGLQSEDEADYYCSSYTGSSTFVVFGGGTQLIILGGGGSGGGGSGGGGSEVQLVESGGGVVQPGGSLRLSCAASGFTFSSYWMSWVRQAPGKGLEWVANIRQDGSEKYYVDSVKGRFTISRDNAKNSLYLQMNSLRAEDAAVYYCAREQDTAMVAFDYWGQGTLVTVSS
notes: as for B1
For B4, the half-maximal effective concentration (EC50) in assay [1] stood at 0.2 nM; in assay [3] it was 1.4 nM. The figures for the “Geometric Mean : B530-H” value in assay [4] and in assay [2] were 60200 and 20500, respectively.

B5: Anti-CLL-1 Binder Clone 2 (scFv)
scFv: QSVLTQPLSVSVALGQTARITCGGNNIGSKNVHWYQQKAGQAPVLVIQRDSNRPSGIPERFSGSNSGNTATLTISRAQAGDEADYFCQVWDSNTYVFGTGTKLTVLGGGGSGGGGSGGGGSEVQLVESGGGLVKPGGSLRLSCAASGFTFSDYYMSWIRQAPGKGLEWVSYISSSGSTIYYADSVKGRFTISRDNAKNSLYLQMNSLRDEDTAVYYCARQSAEIVGAFDHWGQGTMVTVSS
notes: as for B1
Take B5: the figures for the EC50 in assay [1] and in assay [3] were 1.8 nM and 0.9 nM, respectively. The “Geometric Mean : B530-H” value in assay [4] was 50800; in assay [2] it was 11100.

B6: Anti-CLL-1 Binder Clone 12 (scFv)
scFv: DIQMTQSPSSLSASVGDRVTITCQASQDISNYLNWYQQKPGKAPKLLIYDASNLETGVPSRFSGSGSGTDFTLTISSPQPEDLATYYCQQANSFPFTFGQGTKVEIKGGGGSGGGGSGGGGSQVQLVQSGAEVKKPGSSVKVSCKASGYSFTRNDITWVRQANGRGLEWLGRLNPNNGDTVYAEVFQGRVAMTRDTSTDTAYMELASLKSDDTAVYFCARGFWSFDVWGQGTMVTVSS
notes: as for B1
Regarding B6, the EC50 in assay [1] was found to be 0.2 nM; in assay [3] it was 3.7 nM. The entries for the “Geometric Mean : B530-H” value in assay [4] and in assay [2] were 59600 and 11800, respectively.

B7: Anti-CLL-1 Binder Clone 1 (scFv)
scFv: SYVLTQPPSVSVAPGQTARITCGGNNIGSKSVHWYQQKPGQAPVLVVYDDSDRPSGIPERFSGSNSGNTATLTISRVEAGDEADYYCQVWDSSSDHPVFGGGTQLIILGGGGSGGGGSGGGGSQVQLVQSGAEVKKPGSSVKVSCKASGGTFSSYAISWVRQAPGQGLEWMGRIIPILGIANYAQKFQGRVTITADESTSTAYMELSSLRSEDTAVYYCAREKDDILTGAYYYGMDVWGQGTTVTVSS
notes: scFv (VL-linker-VH) from a fully human scFv phage library; not shown: FLAG tag
Consider B7, for which the EC50 in assay [1] worked out at 3.2 nM; in assay [3], 3.4 nM. The “Geometric Mean : B530-H” value amounted to 46300 in assay [4] and 18100 in assay [2].

B8: Anti-CLL-1 Binder Clone 10 (scFv)
scFv: DIQMTQSPSFLSASVGDRVTITCRASQGISSYLAWYQQKPGKAPKLLIYSASSLQSGVPSRFSGSGSGTDFTLTISSLQPEDFATYYCQQSYNSPTFGQGTRLEIKGGGGSGGGGSGGGGSQVQLVQSGAEVKKPGASVKVSCKASGYTFTGYYMHWVRQAPGQGLEWMGWMNPNSGNTGYAQKFQGRVTMTRNTSISTAYLELTSLTSDDTAVYYCARGDTGDFFDHWGQGTLVTVSS
notes: as for B1
On to B8, for which the EC50 in assay [1] came to 0.2 nM; in assay [3], 1.1 nM. Moreover, the “Geometric Mean : B530-H” value stood at 52100 in assay [4] and 24900 in assay [2].

B9: Anti-CLL-1 Binder Clone 4 (scFv)
scFv: QSVVTQPPSVSAAPGQKVTISCSGSSPNIGKNYVSWYQQLPGTAPKLLIYDNNKRPSGIPDRFSGSKSGTSATLGITGLQTGDEADYYCGTWDSSLSGYVFGTGTKVTVLGGGGSGGGGSGGGGSQVQLVESGGGVVQPGRSLRLSCAASGFTFSSYGMHWVRQAPGKGLEWVAFISHDGSNKYYADSVKGRSTISRDNSKSTLFLQMNSLRDEDTAVYFCAREGQLTTSWDFFDYWGHGTLVTVSS
notes: as for B1
On to B9, for which the EC50 in assay [1] came to 6.4 nM; in assay [3] it was 1.4 nM. Moreover, the “Geometric Mean : B530-H” value in assay [4] was found to be 33600; in assay [2], 11600.

B10: Anti-CLL-1 Binder Clone 38 (scFv)
scFv: DIQMTQSPSTLSASVGDRVTITCRASQSISSWLAWYQQKPGKAPKLLIYTASSLQSGVPSRFSGSESGTDFTLTISSLQPEDFATYYCQQSYSTPLTFGGGTKVDIKGGGGSGGGGSGGGGSQVQLVQSGAEVKKPGASVKVSCKASGYTFTGYYMHWVRQAPGQGLEWMGWINPNSGGTNYAQKFQGRVTLTRDTSITTAYLELTSLTSDDTAVYYCARGDTGDFFDHWGQGTLVTVSS
notes: as for B1
Turning to B10, the EC50 in assay [1] turned out to be 1.6 nM; in assay [3], 0.6 nM. Moreover, the “Geometric Mean : B530-H” value amounted to 55300 in assay [4] and 19800 in assay [2].

B11: Anti-CLL-1 Binder Clone 6 (scFv)
scFv: QSVLTQPPSVSAAPGQKVSIFCSGGSSNIGKNYVSWYQQLPGTAPKLLIYENQHRPSGIPDRFSGSKSGTSATLGITGLQTGDEADYYCATWDDSLSAGVFGGGTELTVLGGGGSGGGGSGGGGSQLVQSGAEVRKPGESLKISCKGSGYSFTSYWIGWVRQMPGKGLEWMGFIYPGDSDTRYSPSFQGQVTISADKSISTAYLQRSSLKASDTAMYYCARLGGYSGYDSEVFYLDYWGQGTTVTVSS
notes: as for B1
For the molecule B11, the EC50 in assay [1] worked out at 59 nM; in assay [3] it was 0.9 nM. The “Geometric Mean : B530-H” value in assay [4] was determined as 34300; in assay [2], 9390.

The record behind these values is patent publication US20250333515A1 (VOR BIOPHARMA, published 2025).
